Assay results as given in patent US20260231954A1, “PESTICIDAL ENZYMES FOR USE ON NEMATODES, INSECTS, AND MOLLUSKS” (priority 2023, published 2026).

Tests used:
[1] = system: Diamondback moth (Plutella xylostella); assay: Diet-surface overlay (DSO) bioassay on Diamondback moth; format: in vivo; conditions: 7 days
Experimental: (§1) Diet-surface overlay bioassays are conducted with artificial diet mixes without antibiotics in 1.5 cm^2 cell bioassay trays(s). Artificial diets are commercially available from Southland Products Inc. Diets were prepared by dispersing 0.5 mL of molten diet to each 1.5 cm^2 cell. After solidification, 0.1 mL enzyme treatments were dispersed on top of diet in each cell and the tray was gently rocked in an orbital shaker to spread the liquid uniformly over the diet surface. Trays were placed under clean airflow until the surface of each cell was uniformly dried. One or two 16-cell sections were used per treatment (the number in larvae treated was 16 or 32).
(§2) One healthy first instar larva was placed into each treatment cell, each 16-cell section was covered with a re-sealable lid and incubated at 27° C. and light-dark period of 16:8 hrs. After 7 days, and according to the species, the number of individuals in the following developmental categories was recorded.
(§3) Diamondback moth (Plutella xylostella): Dead Larva (lack of movement), Larva Stage I (≤50% relative size), Larva Stage II (100% relative size, full size), Early Pupa (light green color), Late Pupa (light-dark brown color), and Adult.
(§4) Negative/untreated controls were treated with filtered water and positive controls were treated with lethal doses of Bacillus thuringiensis subsp. Kurstaki (Btk) spores at 1000 ppm.

[2] = system: Btk resistant Diamondback moth; assay: Diet-surface overlay (DSO) bioassay on Btk resistant Diamondback moth; format: in vivo, Plutella xylostella; conditions: 7 days
Experimental: as §1, §2, §3, §4
However, both neutral proteases reduced the number of individuals reaching adult stage.
The effect of lipase (10× enzyme rate) and free lipases were tested on a Diamondback Moth Btk resistant strain. Free Lipases from Burkholderia cepacia (Bc) and Pseudomonas fluorescens (Pf) were tested along with Lipase (SEQ ID NO: 76) and the results are shown below in Table 45.

[3] = system: soybean cyst nematode (SCN, Heterodera glycines); assay: Soybean cyst nematode reproduction on soybean after seed treatment, controlled environment (cysts per gram of root tissue or per plant); format: in vivo; conditions: for % Comparison to Control (figure in parentheses): change vs base control; for Average cysts per g of root tissue: soybean 2830E3
[4] = system: SCN juveniles (SCN HG type 1.2.5.7, race 2); assay: In-vitro plate assay of SCN juvenile viability (difference in percent death); format: in vivo; conditions: Table 32, 40 μL per well of each treatment, water only 4%
Experimental: (§5) SCN eggs were obtained from SCN HG type 1.2.5.7, race 2. Eggs were rinsed 4 times with sterile water. Eggs were transferred to a 6-well plate and resuspended in 5 mL of 3 mM ZnSO4. The plate was sealed with parafilm, covered with aluminum foil to prevent light from entering the plate, and placed in a plate growth chamber at 25° C. and 80% relative humidity. After 6-7 days of incubation, an estimate of hatched SCN juveniles was obtained from the well to determine the overall number of juveniles per 10 μL. The concentration of the hatchery solution was adjusted until it consisted of 20-30 juveniles per 10 μL.
Potato dextrose agar media containing chloramphenicol and chlortetracycline was prepared and added to sterile twenty-four-well cell culture plates (1 mL per well). The plates were divided according to the pre-determined N-value for each treatment (N=12-24). Each treatment being tested was added to the agar surface within each well at a rate of 40 μL per well. Without allowing the treatments to dry, 10 μL of the prepared nematode mixture was added to the agar surface within each well.
To quantify the treatments' effects on nematode viability, the nematodes were examined under a dissecting microscope at 20× magnification. Initial (TO) values for the number of live juveniles, number of dead juveniles and total number of juveniles were recorded immediately after preparation of each well. The plates were then wrapped in parafilm around the open edge, encased in aluminum foil, and placed in secondary containment. The secondary containment was placed in a plant growth chamber at 25° C. and 80% relative humidity. At approximately 24 hours post addition of juveniles, the plates were evaluated, and the number of live juveniles, dead juveniles and total number of juveniles were recorded (T24).
The difference in percent death at T0 vs T24 was calculated by subtracting the percent dead at TO [(#dead juveniles/total #juveniles)×100] from the percent dead at T24 [(#dead juveniles/#total juveniles originally present)×100]. […] If the ANOVA indicated a significant difference existed among treatments, Tukey's HSD post hoc test was used to perform a pairwise contrast between each set of treatments. Different letters denote statistically significant results at P<0.05.
as §5, with “from” for “from SCN”, “rinsed four” for “rinsed 4”, “and 80-90%” for “and 80%”, “from each” for “from the”
Potato dextrose agar media containing chloramphenicol and chlortetracycline was prepared and added to sterile twenty-four-well cell culture plates (1 mL per well). The plates were divided according to the pre-determined N-value for each treatment (N=24). […]
To quantify the treatments' effects on nematode viability, the nematodes were examined under a dissecting microscope at 20× magnification. Initial (TO) values for the number of live juveniles, number of dead juveniles and total number of juveniles were recorded. […]

[5] = Table 44, number of individuals, n = 16
[6] = Table 45, number of individuals, n = 32

B1: Lipase (SEQ ID NO: 76): Recombinant lipase from Bacillus thuringiensis; Bacillus thuringiensis Lipase (Lip1) (protein, listed as Bacillus thuringiensis)
chain: MRLMRRCVALLIVFFIMAPMISTNVRAGVVKELKTGFPDQEVFTPGEWFLGQKPANYDENKPPILFVQGRNGNADSWYGKTVYHDINDMYDYALKAGYQTVFIQLYDAAGKGSASQWDNGKLLAQKLEEIYNHFGKKVNIVAHSKGGIDTQAALVGYGANRFVGNVITLATPHHGSNLADLSYSWWAGWLASILGQKDDGTYSLQMGEMAKFRSTIDNNPAAKLNRYYTVTGTSWGPVFSALSMGGLYLSSYGSNDGLVNECSAKLPYGTHLFTDSRFDHDNIRKGSAVFARIEPYLRTANVPVPALVASSTSSNENIEQLNTTSNQSILGGELPQNQWIEQTVAVDKKAEGIVSILTASSDVEVQMISPKGKVYTNKDSVITTGEGESFFGGATIRTFKFDKMDVGEWKVKMMTKQSKDAYLVVSDYKTGAPFVLQMPTKVKANKSEYKLKKSPVAPEMKGDLSITVRVVNKEGKLVSEFNELQNVNNNTFTGALKNIKQPGVYNVTMDIKGMNKEGKSYSRTIVKSVYVEK
modifications: Lipase (Lip1 H192)
Effect on survival and development of Diamondback moth (in words) ([1]; DSO bioassay): delayed larva-pupa development
Dead Larva ([1]; Table 44, lipases, number of individuals, n = 16): 0
Adult [1, 5]: 0
Early Pupa [1, 5]: 3
Larva Stage I [1, 5]: 0
Larva Stage II [1, 5]: 0
Late Pupa [1, 5]: 13
Effect on survival and development of Btk resistant Diamondback moth (in words) ([2]; DSO bioassay): clear delay of larva-pupa development
Dead Larva ([2]; Table 45, lipases, number of individuals, n = 32, Btk resistant strain per text): 1
Adult [2, 6]: 0
Early Pupa [2, 6]: 10
Larva Stage I [2, 6]: 9
Larva Stage II [2, 6]: 12
Late Pupa [2, 6]: 0

B2: Pseudomonas sp. esterase (SEQ ID NO: 248): Pseudomonas sp. Esterase (protein, listed as Pseudomonas sp.)
chain: MTEPLILQPVKPADACVIWLHGLGADRYDFLPVAEALQEILLSTRFVLPQAPTRPVTINGGYAMPSWYDIKAMSPARAIDRDELEASADRIIELIEEQRSSGIDASRIFLAGFSQGGAVVYHTAFLKWQGPLGGVLALSTYAPTFSDELELSASQQRIPVLSLHGQFDNVVQNSMGRTAYEYLKAHGVTVTWQEYPMEHEVLPEEIRDIGTWLSERLR
% Comparison to Control (figure in parentheses) ([3]; Table 16): −10%
Average cysts per g of root tissue ([3]; Table 16, free enzyme or 4x concentrate seed treatment): 220.2 cysts per g of root tissue
Difference in Percent Death of Nematodes for 0 to 24 Hours [4]: 22%
Difference in Percent Death of Nematodes for 0 to 24 Hours ([4]; listed as Pseudomonas sp. esterase free enzyme (SEQ ID NO: 248)): 22%

B3: Collagenase B (SEQ ID NO: 208): Bacillus pumulis Collagenase B (ColB) (protein, listed as Bacillus pumulis, listed as Bacillus pumilus)
chain: IVNGKRVITKKPELLAPAGNLEKLKIAVHYGADAVFIGGQEYGLRSNADNFTIEEIAEGVEFAKKYGAKIYVTTNIFAHNENMDGLEDYLKALGDANVAGIIVADPLIIETCRRVAPNVEVHLSTQQSLSNWKAVQFWKEEGLDRVVLARETSALEIREMKEKVDIEIESFIHGAMCIAYSGRCVLSNHMTARDSNRGGCCQSCRWDYDLYQTDGANAVALYGEEDAPFAMSPKDLKLIESIPKMIEMGIDSLKIEGRMKSIHYVATVVSVYRKVIDAYCADPENFVIQKEWLEELDKCANRDTATAFFEGTPGYEEQMFGEHAKKTTYDFVGLVLNYDEDTQMVTLQQRNFFKKGDEVEFFGPEIENFTHTIETIWDEDGNELDAARHPLQIVKFKLDKKIYPSNMMRKGK
modifications: Collagenase B (ColB)
% Comparison to Control (figure in parentheses) ([3]; Table 22): −85%
Average cysts per g of root tissue ([3]; Table 22, free enzyme seed treatment): 70.9 cysts per g of root tissue

B4: Bacillus thuringiensis Lipase 2 (SEQ ID NO: 251): Bacillus thuringiensis Lipase 2 (protein, listed as Bacillus thuringiensis)
chain: EVVKELGKGFPDTEVFTPGEWFLGQKPANYDENKPPILFVQGRNGNADSWYGKTVYHDINDMYDYALKAGYQTVFIQLYDAAGKGSASQWDNGKLLAQKLEEIYNYFGKKVNIVAHSKGGIDTQAALVEYGANRFVGNVITLATPHHGSNLADLSYSWWAGWLASILGQKDDGTYSLQIGEMAKFRSIIDNNPAAKLNRYYTATGTSWGPTFSALSMGGLYLSSYGSNDGLVNEWSAKLSYGTHLFTDSRFDHDNIRKGSAVFARIEPYLRTTNVGLPALVASSTSSNEDLEQLNTTSNQNILGGELPQNQWIEQSISVDKKAEGIVSVLTASSDVEVQMVSPKGKIYANKDSAITTGEGESFFNRATIRTFKFDKLEVGEWKIKMMAKQSKDAYLVVSDYKDDAPFVLRMPTKVKINKPEYKLKKSPVAPEMKGDLSITVRVVNKEGKLVSEFNELQNVNTNTFTGALKDIKQPGVYNVTMDIKGMNKEGKPYNRTIVKSVYVEK
% Comparison to Control (figure in parentheses) ([3]; Table 20): −43%
Average cysts per g of root tissue ([3]; Table 20, free enzyme seed treatment): 264.3 cysts per g of root tissue
